Common to all, as to experiment: IEDB peptide-MHC binding, purified MHC/competitive/radioactivity; filed as Kd, often an IC50 or EC50 that approximates it; ≥ and ≤ were set here for values at or beyond the usual limits of such assays
Test [1] deals with HLA-A*33:01.
For test [2], the target named is HLA-A*03:01.
Test [3] addresses HLA-A*11:01.
Test [4] concerns the target HLA-A*68:01.
In test [5] the target is HLA-A*31:01.
Setting [6] is: source organism: Vaccinia virus WR.
Setting [7] is: source organism: SARS coronavirus Tor2.
Setting [8] is: source organism: Mammarenavirus lassaense.
Setting [9] is: source organism: Mammarenavirus whitewaterense.
The mark [10] stands for this setting: source organism: Lassa virus Josiah.
[11] abbreviates: source organism: Mammarenavirus juninense.
[12] abbreviates: source organism: Mammarenavirus guanaritoense.
[13] abbreviates: source organism: Vaccinia virus Copenhagen.
Setting [14] is: source organism: Lymphocytic choriomeningitis virus (strain Armstrong).

Our source for the Kd values is the Immune Epitope Database (IEDB).

pKd: −log10 of the molar value. A value given as a limit tells only on which side of the number the result lay.

For orientation: pKd means the negative decadic logarithm of the Kd, by convention in mol/L.

With VFKDSFLRK, the pKd was 5.73 in test [1] (setting [6]); 6.49 in test [2] (setting [6]); 6.67 in test [3] (setting [6]); 6.11 in test [4] (setting [6]); 6.81 in test [5] (setting [6]).

Turning to VLDMCAALK, the negative logarithm of the Kd (pKd) in test [1] (setting [7]) was 4.87; in test [2] (setting [7]), 7.75; in test [3] (setting [7]), 7.35; in test [4] (setting [7]), 5.60; in test [5] (setting [7]) it was 5.63.

Consider TAIKEVVMAY, for which the pKd was not above 4.67 in test [1] (setting [6]); 5.35 in test [2] (setting [6]); 5.95 in test [3] (setting [6]); 6.50 in test [4] (setting [6]); 5.37 in test [5] (setting [6]).

For the sequence DSCNANGCEH, the pKd in test [1] (setting [8]) is not above 4.15; in test [2] (setting [8]) it was not above 4.15; in test [3] (setting [8]), not above 4.16; in test [4] (setting [8]), not above 4.15; in test [5] (setting [8]) it was not above 4.15.

For VAFELWAKR, the pKd in test [1] (setting [7]) was 7.28; in test [2] (setting [7]), 5.03; in test [3] (setting [7]), 5.49; in test [4] (setting [7]), 7.63; in test [5] (setting [7]), 7.11.

As to LFYVSSIFLH, the pKd is 7.13 in test [1] (setting [9]); 5.22 in test [2] (setting [9]); 5.65 in test [3] (setting [9]); 6.01 in test [4] (setting [9]); 6.50 in test [5] (setting [9]).

Turning to VLFVKKMLPK, the pKd is 4.87 in test [1] (setting [6]); 8.14 in test [2] (setting [6]); 7.92 in test [3] (setting [6]); 5.63 in test [4] (setting [6]); 5.76 in test [5] (setting [6]).

Take QFVDINRNNK: the pKd in test [1] (setting [6]) is 6.12; in test [2] (setting [6]), 5.73; in test [3] (setting [6]) it was 6.18; in test [4] (setting [6]), 6.77; in test [5] (setting [6]), 8.34.

Regarding MLQKEYMER, the pKd is 6.71 in test [1] (setting [10]); 4.96 in test [2] (setting [10]); 5.87 in test [3] (setting [10]); 7.48 in test [4] (setting [10]); 7.00 in test [5] (setting [10]).

In the case of KVAGFAKFLK, the pKd in test [1] (setting [7]) was 5.50; in test [2] (setting [7]), 8.07; in test [3] (setting [7]) it was 7.97; in test [4] (setting [7]) it was 7.93; in test [5] (setting [7]), 7.50.

Turning to LSSKGLACY, the pKd in test [1] (setting [6]) was not above 4.11; in test [2] (setting [6]), 6.11; in test [3] (setting [6]), 5.26; in test [4] (setting [6]) it was 5.08; in test [5] (setting [6]), 4.88.

CLEWLRAKR: the pKd in test [1] (setting [6]) was 6.36; in test [2] (setting [6]), 4.88; in test [3] (setting [6]), not above 4.31; in test [4] (setting [6]), 6.53; in test [5] (setting [6]), 7.12.

Turning to WVLAYMLFTK, the pKd in test [1] (setting [7]) was 5.40; in test [2] (setting [7]), 7.62; in test [3] (setting [7]), 7.49; in test [4] (setting [7]) it was 6.98; in test [5] (setting [7]) it was 5.90.

With LILCFTIKR, the pKd is 5.15 in test [1] (setting [7]); 5.85 in test [2] (setting [7]); 6.64 in test [3] (setting [7]); 5.85 in test [4] (setting [7]); 5.05 in test [5] (setting [7]).

Turning to SLFKNVRLLK, the pKd in test [1] (setting [6]) was 5.66; in test [2] (setting [6]), 8.29; in test [3] (setting [6]), 7.88; in test [4] (setting [6]), 6.47; in test [5] (setting [6]), 6.93.

For the sequence VADLSARNK, the pKd was 4.93 in test [1] (setting [6]); 6.67 in test [2] (setting [6]); 6.82 in test [3] (setting [6]); 5.95 in test [4] (setting [6]); 5.52 in test [5] (setting [6]).

Regarding AFSLDVSEK, the pKd in test [1] (setting [7]) was not above 4.11; in test [2] (setting [7]) it was 4.92; in test [3] (setting [7]), 5.45; in test [4] (setting [7]) it was 5.17; in test [5] (setting [7]), 4.91.

For the sequence LLRALRLTK, the pKd in test [1] (setting [7]) is not above 4.62; in test [2] (setting [7]) it was 7.61; in test [3] (setting [7]), 5.41; in test [4] (setting [7]), not above 4.22; in test [5] (setting [7]), 6.07.

As for QTQTYNIGK, the negative-log Kd (pKd) in test [1] (setting [6]) was 5.58; in test [2] (setting [6]) it was 6.84; in test [3] (setting [6]) it was 8.15; in test [4] (setting [6]), 8.05; in test [5] (setting [6]) it was 6.50.

Take ITDNGPMPY: the pKd in test [1] (setting [6]) is 5.80; in test [2] (setting [6]) it was 5.30; in test [3] (setting [6]), 8.14; in test [4] (setting [6]) it was 5.61; in test [5] (setting [6]) it was 5.92.

Take QFKQDAKYSH: the pKd is 4.97 in test [1] (setting [10]); not above 4.15 in test [2] (setting [10]); not above 4.16 in test [3] (setting [10]); not above 4.15 in test [4] (setting [10]); 4.74 in test [5] (setting [10]).

Turning to GALDTTSYR, the pKd in test [1] (setting [7]) was 5.85; in test [2] (setting [7]), 5.18; in test [3] (setting [7]), 7.58; in test [4] (setting [7]) it was 7.16; in test [5] (setting [7]), 7.06.

In the case of GFAAYNRYR, the pKd in test [1] (setting [7]) was 5.01; in test [2] (setting [7]), 5.24; in test [3] (setting [7]), 5.18; in test [4] (setting [7]) it was not above 4.57; in test [5] (setting [7]), 6.09.

Turning to TVFFTASLFL, the pKd in test [1] (setting [11]) is not above 4.15; in test [2] (setting [11]), 5.88; in test [3] (setting [11]) it was 6.32; in test [4] (setting [11]), 6.05; in test [5] (setting [11]) it was 5.14.

As to MRYTCLNSEK, the pKd was 5.17 in test [1] (setting [11]); 6.55 in test [2] (setting [11]); not above 4.31 in test [3] (setting [11]); 5.00 in test [4] (setting [11]); 5.30 in test [5] (setting [11]).

On to DIETAIRAGY, for which the pKd in test [1] (setting [6]) is 5.17; in test [2] (setting [6]) it was 5.61; in test [3] (setting [6]), 5.24; in test [4] (setting [6]) it was 5.91; in test [5] (setting [6]), 4.71.

Take LTQIFEVYWY: the pKd is 5.90 in test [1] (setting [6]); 6.00 in test [2] (setting [6]); 6.46 in test [3] (setting [6]); 6.03 in test [4] (setting [6]); 6.03 in test [5] (setting [6]).

On to VIILAALFMY, for which the pKd in test [1] (setting [6]) was not above 4.15; in test [2] (setting [6]), 5.58; in test [3] (setting [6]) it was 6.35; in test [4] (setting [6]), not above 4.29; in test [5] (setting [6]), not above 4.15.

DIVNGKECCY: the pKd in test [1] (setting [6]) is not above 4.15; in test [2] (setting [6]) it was not above 4.15; in test [3] (setting [6]), not above 4.16; in test [4] (setting [6]), not above 4.15; in test [5] (setting [6]), not above 4.15.

Regarding NLFSKNILKY, the pKd in test [1] (setting [6]) was not above 4.15; in test [2] (setting [6]) it was 6.18; in test [3] (setting [6]) it was 4.79; in test [4] (setting [6]), 5.06; in test [5] (setting [6]), not above 4.15.

Take LSYVIGLLPH: the pKd in test [1] (setting [12]) is not above 4.15; in test [2] (setting [12]), 5.65; in test [3] (setting [12]) it was not above 4.45; in test [4] (setting [12]), not above 4.15; in test [5] (setting [12]) it was 5.05.

As for ITFFQEVPH, the pKd is not above 4.11 in test [1] (setting [8]); 4.97 in test [2] (setting [8]); 6.71 in test [3] (setting [8]); 7.14 in test [4] (setting [8]); 5.09 in test [5] (setting [8]).

For the sequence TLFIDRGSIK, the pKd is 5.33 in test [1] (setting [13]); 7.91 in test [2] (setting [13]); 7.49 in test [3] (setting [13]); 7.39 in test [4] (setting [13]); 5.10 in test [5] (setting [13]).

Turning to FISDNKKEY, the pKd is not above 4.11 in test [1] (setting [6]); not above 4.11 in test [2] (setting [6]); not above 4.11 in test [3] (setting [6]); 5.15 in test [4] (setting [6]); not above 4.11 in test [5] (setting [6]).

On to EARIVDKFGK, for which the pKd in test [1] (setting [6]) was not above 4.69; in test [2] (setting [6]), 5.11; in test [3] (setting [6]), 5.59; in test [4] (setting [6]), 7.00; in test [5] (setting [6]), 6.20.

For CLAVHECFVK, the pKd in test [1] (setting [7]) was not above 4.21; in test [2] (setting [7]), 5.52; in test [3] (setting [7]), 5.46; in test [4] (setting [7]), 5.64; in test [5] (setting [7]), 5.12.

With LSCTKNNSHH, the pKd is not above 4.15 in test [1] (setting [10]); not above 4.15 in test [2] (setting [10]); not above 4.20 in test [3] (setting [10]); not above 4.43 in test [4] (setting [10]); not above 4.15 in test [5] (setting [10]).

As to ITPTIEDDK, the pKd was not above 4.11 in test [1] (setting [6]); not above 4.11 in test [2] (setting [6]); 5.18 in test [3] (setting [6]); 6.28 in test [4] (setting [6]); not above 4.11 in test [5] (setting [6]).

Consider KLSSIKSKSR, for which the pKd is not above 4.56 in test [1] (setting [6]); 6.29 in test [2] (setting [6]); 5.00 in test [3] (setting [6]); 4.73 in test [4] (setting [6]); 6.98 in test [5] (setting [6]).

Regarding KAPNVISSK, the pKd is not above 4.65 in test [1] (setting [6]); 8.72 in test [2] (setting [6]); 8.15 in test [3] (setting [6]); 6.81 in test [4] (setting [6]); 6.76 in test [5] (setting [6]).

On to IIVLFQRFLR, for which the pKd is 7.88 in test [1] (setting [6]); 6.03 in test [2] (setting [6]); 7.35 in test [3] (setting [6]); 8.52 in test [4] (setting [6]); 8.88 in test [5] (setting [6]).

Consider SIPISELSR, for which the pKd is 5.01 in test [1] (setting [6]); not above 4.61 in test [2] (setting [6]); 6.90 in test [3] (setting [6]); 7.95 in test [4] (setting [6]); 5.43 in test [5] (setting [6]).

In the case of IVTDLENRLK, the pKd in test [1] (setting [6]) was not above 4.57; in test [2] (setting [6]), 7.60; in test [3] (setting [6]), 6.51; in test [4] (setting [6]) it was 6.51; in test [5] (setting [6]), 6.26.

For DLVKSSFVKK, the pKd in test [1] (setting [6]) is 6.55; in test [2] (setting [6]) it was 6.81; in test [3] (setting [6]), 6.75; in test [4] (setting [6]), 5.95; in test [5] (setting [6]), 6.77.

Turning to KVILSEISFH, the pKd in test [1] (setting [14]) was 4.79; in test [2] (setting [14]), 5.86; in test [3] (setting [14]) it was 6.09; in test [4] (setting [14]) it was 4.90; in test [5] (setting [14]), 5.68.

For ISSVLTILYY, the pKd in test [1] (setting [6]) is 5.84; in test [2] (setting [6]), 6.25; in test [3] (setting [6]) it was 6.81; in test [4] (setting [6]) it was 6.79; in test [5] (setting [6]), 5.23.
